For 94 variants, protein stability index results are on record in the supplement of paper PMC10567573.

First the molecules themselves.
B1: ZNF232 (parent)
chain: FPKSEQVYLHFLSVVTEDGPEPKD
B2: SPRY1 (parent)
chain: WIHRPGCRCKNSNTVYCKLESCPS
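Further: lentivirally expressed fusions sorted by FACS into six bins by GFP to DsRed ratio, PSI derived from sequencing read proportions per bin multiplied by bin number.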

The variants in the first data set derive from B1. Briefly: protein stability index of a GFP-peptide fusion (GPS, HEK-293T) (PSI 1-6); higher = more stable. To be noted: c terminus: a fixed tail appended.
Turning to FPKSEQVYLHFLSVVTEDGPEPKC, the protein stability index came to 1.36. With FPKSEQVYLHFLSVVTEDGPEPKL, the protein stability index turned out to be 2.94.

Consider FPKSEQVYLHFLSVVTEDGPEPKQ, for which the protein stability index was 2.95. Still for that read-out and setting: the result for FPKSEQVYLHFLSVVTEDGPEPKH reads 1.35. On the same count and under the same terms, the result for FPKSEQVYLHFLSVVTEDGPEPKV reads 2.37; that for FPKSEQVYLHFLSVVTEDGPEPKT, 1.75. On the same count and under the same terms, the same measure for FPKSEQVYLHFLSVVTEDGPEPKW: 1.35; for FPKSEQVYLHFLSVVTEDGPEPKY: 2.58. Take FPKSEQVYLHFLSVVTEDGPEPKP: the protein stability index worked out at 2.16. Same read-out and setting: the result for FPKSEQVYLHFLSVVTEDGPEPKS reads 1.71; that for FPKSEQVYLHFLSVVTEDGPEPKM, 1.56.

Regarding FPKSEQVYLHFLSVVTEDGPEPKR, the protein stability index is 1.83. The same measure, in the same setting: the result for FPKSEQVYLHFLSVVTEDGPEPKE reads 2.12; that for FPKSEQVYLHFLSVVTEDGPEPKI, 2.14. The same measure, in the same setting: the same measure for FPKSEQVYLHFLSVVIEDGPEPKD: 2.19; for FPKSEQVYLHFLSVVPEDGPEPKD: 3.37; for FPKSEQVYLHFLSVVQEDGPEPKD: 1.87. For the variant FPKSEQVYLHFLSVVVEDGPEPKD, the protein stability index came out at 1.81. Consider FPKSEQVYLHFLSVVYEDGPEPKD, for which the protein stability index stood at 2.07.

Regarding FPKSEQVYLHFLSVVSEDGPEPKD, the protein stability index amounted to 2.31. Same read-out and setting: the result for FPKSEQVYLHFLSVVLEDGPEPKD reads 1.85; that for FPKSEQVYLHFLSVVAEDGPEPKD, 2.31; that for FPKSEQVYLHFLSVVNEDGPEPKD, 2.42.

As to FPKSEQVYLHFLSVVWEDGPEPKD, the protein stability index was 1.89. The same measure, in the same setting: the result for FPKSEQVYLHFLSVVHEDGPEPKD reads 2.68. Same read-out and setting: the result for FPKSEQVYLHFLSVVEEDGPEPKD reads 2.38. As for FPKSEQVYLHFLSVVDEDGPEPKD, the protein stability index was 2.26.

FPKSEQVYLHFLSVVFEDGPEPKD: the protein stability index amounted to 1.63. The same measure, in the same setting: the result for FPKSEQVYLHFLSVVKEDGPEPKD reads 2.77. For FPKSEQVYLHFLSVVCEDGPEPKD, the protein stability index came out at 2.47. On the same count and under the same terms, the same measure for FPKSEQVYLHFLSVVTEDGPLPKD: 1.91; for FPKSEQVYLHFLSVVTEDGPDPKD: 2.02; for FPKSEQVYLHFLSVVTEDGPIPKD: 2.33. As for FPKSEQVYLHFLSVVTEDGPVPKD, the protein stability index was 2.97. Consider FPKSEQVYLHFLSVVTEDGPKPKD, for which the protein stability index was 2.07.

For the variant FPKSEQVYLHFLSVVTEDGPFPKD, the protein stability index was 3.2. Still for that read-out and setting: the same measure for FPKSEQVYLHFLSVVTEDGPHPKD: 2.02; for FPKSEQVYLHFLSVVTEDGPNPKD: 2.12. With FPKSEQVYLHFLSVVTEDGPAPKD, the protein stability index was 2.71. In the case of FPKSEQVYLHFLSVVTEDGPSPKD, the protein stability index came to 2.26. Regarding FPKSEQVYLHFLSVVTEDGPWPKD, the protein stability index stood at 1.7. With FPKSEQVYLHFLSVVTEDGPQPKD, the protein stability index worked out at 1.71. FPKSEQVYLHFLSVVTEDGPCPKD: the protein stability index was 1.91.

Regarding FPKSEQVYLHFLSVVTEDGPRPKD, the protein stability index came out at 1.79.

In the case of FPKSEQVYLHFLSVVTEDGPPPKD, the protein stability index is 1.91. As for FPKSEQVYLHFLSVVTEDGPMPKD, the protein stability index was determined as 2.04. The same measure, in the same setting: the result for FPKSEQVYLHFLSVVTEDGPYPKD reads 1.68; that for FPKSEQVYLHFLSVVTEDGPTPKD, 2.06. The same measure, in the same setting: the result for FPKSEQVYLHFLSVVTEVGPEPKD reads 1.23.

With FPKSEQVYLHFLSVVTENGPEPKD, the protein stability index stood at 1.71. For FPKSEQVYLHFLSVVTEMGPEPKD, the protein stability index stood at 1.01.

For the variant FPKSEQVYLHFLSVVTEFGPEPKD, the protein stability index came out at 3.47. Still for that read-out and setting: the result for FPKSEQVYLHFLSVVTESGPEPKD reads 1.33; that for FPKSEQVYLHFLSVVTEYGPEPKD, 1.24; that for FPKSEQVYLHFLSVVTEAGPEPKD, 1.73. On the same count and under the same terms, the same measure for FPKSEQVYLHFLSVVTELGPEPKD: 2.61; for FPKSEQVYLHFLSVVTERGPEPKD: 1.47; for FPKSEQVYLHFLSVVTEPGPEPKD: 1.94.

FPKSEQVYLHFLSVVTEKGPEPKD: the protein stability index turned out to be 1.58.

With FPKSEQVYLHFLSVVTETGPEPKD, the protein stability index turned out to be 1.76. Same read-out and setting: the result for FPKSEQVYLHFLSVVTEGGPEPKD reads 2.32; that for FPKSEQVYLHFLSVVTEHGPEPKD, 2.46; that for FPKSEQVYLHFLSVVTEQGPEPKD, 1.77.

In another data set the parent is B2. Described as above. The note with it: c terminus: a fixed tail appended.
On to NIHRPGCRCKNSNTVYCKLESCPS, for which the protein stability index was 4.04. Same read-out and setting: the result for DIHRPGCRCKNSNTVYCKLESCPS reads 4.38; that for PIHRPGCRCKNSNTVYCKLESCPS, 3.5. Regarding SIHRPGCRCKNSNTVYCKLESCPS, the protein stability index stood at 4.09. The same measure, in the same setting: the same measure for EIHRPGCRCKNSNTVYCKLESCPS: 3.75; for RIHRPGCRCKNSNTVYCKLESCPS: 3.79.

For the variant TIHRPGCRCKNSNTVYCKLESCPS, the protein stability index was 3.45.

As for KIHRPGCRCKNSNTVYCKLESCPS, the protein stability index worked out at 3.97. The same measure, in the same setting: the same measure for QIHRPGCRCKNSNTVYCKLESCPS: 3.23; for CIHRPGCRCKNSNTVYCKLESCPS: 3.78; for GIHRPGCRCKNSNTVYCKLESCPS: 3.65.

With LIHRPGCRCKNSNTVYCKLESCPS, the protein stability index turned out to be 3.54.

Take VIHRPGCRCKNSNTVYCKLESCPS: the protein stability index is 3.03. For HIHRPGCRCKNSNTVYCKLESCPS, the protein stability index turned out to be 3.72. Still for that read-out and setting: the result for AIHRPGCRCKNSNTVYCKLESCPS reads 3.52; that for YIHRPGCRCKNSNTVYCKLESCPS, 2.13; that for MIHRPGCRCKNSNTVYCKLESCPS, 2.88. For the variant IIHRPGCRCKNSNTVYCKLESCPS, the protein stability index was 3. Still for that read-out and setting: the same measure for FIHRPGCRCKNSNTVYCKLESCPS: 2.04; for WLHRPGCRCKNSNTVYCKLESCPS: 2.34; for WCHRPGCRCKNSNTVYCKLESCPS: 3.23. The same measure, in the same setting: the result for WFHRPGCRCKNSNTVYCKLESCPS reads 1.61. WAHRPGCRCKNSNTVYCKLESCPS: the protein stability index came to 2.68.

Regarding WNHRPGCRCKNSNTVYCKLESCPS, the protein stability index was found to be 3.22.

WKHRPGCRCKNSNTVYCKLESCPS: the protein stability index was determined as 3.39. On the same count and under the same terms, the same measure for WDHRPGCRCKNSNTVYCKLESCPS: 3.9; for WPHRPGCRCKNSNTVYCKLESCPS: 3.62; for WEHRPGCRCKNSNTVYCKLESCPS: 3.89. On the same count and under the same terms, the same measure for WHHRPGCRCKNSNTVYCKLESCPS: 2.77; for WMHRPGCRCKNSNTVYCKLESCPS: 2.4. For the variant WGHRPGCRCKNSNTVYCKLESCPS, the protein stability index is 2.73.
